Patent EP4545563A1, “ANTIBODIES TARGETING ITGA2 AND ANTIBODY-DRUG […]” (Foreseen Technology (Beijing) Co., Ltd., priority 2022, dated 2024)

Legend:
[1] = test system: A431; assay: ADC cancer cell killing, Cell-Titer-Glo 2.0; type: cell-based, human
Description: (§1) Human bile duct cancer cells HuCC-T1 available from Zhejiang MeisenCTCC, human epidermal cancer cells A431 available from Procell Life Science&Technology Co.,Ltd. (Wuhan) and Chinese hamster ovary cells CHO from negative control ATCC were seeded into a 96-well plate at 2500 cells/well. It was then incubated in a 5% CO2 incubator overnight at 37°C. Half of the medium was removed from the cell plate on the next day. A 2x hIgG1 (negative control antibody, provided by Biointron), Vatelizumab, FS002-A1-vc-MMAE, FS002-A15-vc-MMAE, FS002-A36-vc-MMAE, Vatelizumab-ve-MMAE, hIgG1-vcMMAE (negative control ADC, provided by ChemPartner) was prepared with a complete culture medium, and then diluted at a 3-fold gradient with 11 specific concentration points in total. Serial dilutions of the above molecules were added to the appropriate wells, and it was then incubated in a 5% CO2 incubator for 5 days at 37°C. After the incubation, 100 uL of Cell-Titer-Glo 2.0 reagent was added to the 96-well plate. It was then well mixed on a plate shaker for 2 minutes, and finally equilibrated at room temperature for 10 minutes. Readings were taken using a microplate reader. Finally, IC50 was used to compare the biological activity of the ADC against each cell line.

[2] = test system: HuCC-T1; assay: ADC cancer cell killing, Cell-Titer-Glo 2.0; type: cell-based, human
Description: as §1

[3] = test system: CHO; assay: ADC cell killing in negative control cells, Cell-Titer-Glo 2.0; type: cell-based, Chinese hamster
Description: as §1

[4] = result in words, summary of Table 9

B1: Vatelizumab-ve-MMAE: antibody-drug conjugate of the positive control antibody Vatelizumab with vc-MMAE as the linker-payload (conjugate, chains of the INN, looked up)
VH: QVQLQESGPGLVKPSETLSLTCTVSGFSLTNYGIHWIRQPPGKGLEWLGVIWARGFTNYNSALMSRLTISKDNSKNQVSLKLSSVTAADTAVYYCARANDGVYYAMDYWGQGTLVTVSS
VL: DFVMTQSPAFLSVTPGEKVTITCSAQSSVNYIHWYQQKPDQAPKKLIYDTSKLASGVPSRFSGSGSGTDYTFTISSLEAEDAATYYCQQWTTNPLTFGQGTKVEIK
modifications: vc-MMAE payload
IC50 ([1]; human epidermal cancer cells A431, incubated 5 days at 37°C): 0.08 nM
killing effect on A431 [1, 4]: good killing effect
IC50 ([2]; Human bile duct cancer cells HuCC-T1, incubated 5 days at 37°C): 0.89 nM
killing effect on HuCC-T1 [2, 4]: good killing effect
IC50 ([3]; negative control cells CHO, incubated 5 days at 37°C): > 207 nM
killing effect on negative control cells CHO [3, 4]: no killing effect
